According to article PMC11983130:

Tests used:
SRSF1 RRM1+2 (ASF/SF2) [1] = molecular target: T1, SRSF1 RRM1+2 (ASF/SF2) (UniProt Q07955 1-196); assay: competition
SRSF1 RRM1+2 (ASF/SF2) [2] = molecular target: T1, SRSF1 RRM1+2 (ASF/SF2); assay: fluorescence anisotropy
SRSF1 RRM1+2 (ASF/SF2) [3] = molecular target: T1, SRSF1 RRM1+2 (ASF/SF2); assay: competition; remark: listed apart in the source

T1 sequence (Q07955 1-196): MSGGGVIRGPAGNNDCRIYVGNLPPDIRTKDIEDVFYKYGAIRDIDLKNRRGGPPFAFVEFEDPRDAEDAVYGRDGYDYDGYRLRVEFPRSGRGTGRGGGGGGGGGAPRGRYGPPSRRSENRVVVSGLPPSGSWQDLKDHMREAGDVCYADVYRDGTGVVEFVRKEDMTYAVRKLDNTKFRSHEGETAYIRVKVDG

Question: How did the Kd (SRSF1 RRM1+2 (ASF/SF2) [1]) turn out when GGGGCCGGGGCCGGGGCCGGGGCC (ssRNA) [(G4C2)4 unlabeled, folded without K+] was run?
Answer: < 21 nM

Question: For AAAUCAGAGGAAAA (ssRNA) [SRSF1 canonical motif RNA], which Kd (SRSF1 RRM1+2 (ASF/SF2) [2]) is on record?
Answer: 21 ± 3 nM

Question: For AAAAUUAAAAUUAAAAUUAAAAUU (ssRNA) [(A4U2)4 unlabeled], which Kd (SRSF1 RRM1+2 (ASF/SF2) [3]) is on record?
Answer: ~200 nM
